Patent publication US20200397860A1, “SLIT AND BONE GROWTH MODULATION” (Cornell University, priority 2018, published 2020)
Entries after “also recorded” stand apart in the source; their conditions may differ.

Legend:
[1] = system: human mesenchymal stromal cells; assay: ALP activity assay after 6 days of osteogenic culture; assay type: cell-based; details: different doses
Procedure: Primary calvarial osteoblasts were isolated from five-day-old mice by triple collagenase/dispase II digestion. Cells were cultured in α-MEM medium (Gibco) containing 10% FBS, 2 mM L-glutamine, 1% penicillin/streptomycin, 1% Hepes, and 1% nonessential amino acids and differentiated with ascorbic acid and β-glycerophosphate. Conditioned medium was collected from culture of primary osteoblasts and stocked at −80° C. hMSCs were cultured and differentiated into osteoblasts using a commercial kit (Cyagen). All cells were routinely tested to be mycoplasma negative.
For staining of extracellular matrix mineralization, cells were fixed with 10% neutral buffered formalin and stained with alizarin red. Mineralization activity was measured by colorimetric analysis. For alkaline phosphatase (ALP) activity, osteoblasts were fixed with 10% neutral formalin buffer and stained with the solution containing Fast Blue and Naphthol (Sigma-Aldrich). Alternatively, osteoblasts were incubated with 10-fold diluted Alamar Blue solution, washed, and incubated with a solution containing 6.5 mM Na2CO3, 18.5 mM NaHCO3, 2 mM MgCl2, and phosphatase substrate (Sigma-Aldrich). ALP activity was measured by a spectrophotometer (Thermo).

[2] = system: open femoral midshaft fracture; assay: Open femoral midshaft fracture model, systemic IV SLIT3; assay type: in vivo, mouse
Procedure: (§1) Micro-CT (μCT) analysis was conducted on a Scanco Medical μCT 35 system at the Citigroup Biomedical Imaging Core using the previously described parameters. (Shim et al. 2013). μCT analysis was performed by an investigator blinded to the genotypes of the animals under analysis.
For histological analysis, hindlimbs were dissected from the mice or human callus, fixed in 10% neutral buffered formalin for 24-48 hours, and decalcified by daily changes of 15% tetrasodium EDTA for 2 weeks. Tissues were dehydrated by passage through an ethanol series, cleared twice in xylene, embedded in paraffin, and sectioned at 7 μm thickness. Decalcified sections were stained with hematoxylin and eosin (H&E). We incubated the slides with primary antibody to mouse EMCN (sc-65495, Santa Cruz, 1:200) and human Slit3 (ab198726, Abcam 1:50) at 37° C. for 2 h and subsequently used a horseradish peroxidase-streptavidin detection system (Dako) to detect the immunoreactivity. The number and volume of positively stained vessels was measured in four random visual fields of callus in 3 sequential sections per mouse in each group.
All surgical procedures were performed under isoflurane (1-4%) anesthesia via nosecone. Surgical sites were sterilized using a betadine/iodide/isopropanol prep after hair removal by a clipper with a #40 blade and depilatory cream (Nair). After surgery, the visceral lining or muscle was sutured with absorbable Ethicon vicryl sutures (VWR, Cat #95057-014) prior to closing the skin with wound clips that were then removed 2 weeks post-operatively. Animals received intraperitoneal Buprenex (0.5 mg/kg) and oral Meloxicam (2.0 mg/kg) as analgesia prior to surgery and once every 24 hours post-surgery for 3 days. All surgical procedures are approved by the IACUC of Weill Cornell Medical College (Protocol #2012-0005).
(§2) Bone fracture was done following previously described protocols with modifications (Bradaschia-Correa et al. 2017). In brief, after anesthesia and surgical site sterilization, an incision above the right anterolateral femur was made. The femur and patella were then exposed, and a 27-gauge syringe needle was inserted parallel with the long axis of the femur through the patellar groove into the marrow cavity. The needle was then removed, and a single cut was made in the middle of the femoral diaphysis using a dremel saw with a diamond thin cutting wheel (VWR, Cat #100230-724). A blunt 25-gauge needle was then inserted into the marrow space through the hole made in the patella to stabilize the fracture. The needle was then trimmed to avoid it from projecting into the patella-femoral joint space. Muscle was then placed over the osteotomy site and stitched with absorbable sutures prior to closing the skin with wound clips.
(§3) Alternatively, the gelatin sponge was manually soaked with SLITS (300 ug/ml in PBS) or vehicle for 1 hour on ice and immediately placed to the surgical fracture area. All animals were euthanized by CO2 at time points indicated.
(§4) All bones were tested to failure using four-point bending on a precision electromagnetic-based load frame (EnduraTEC ELF 3200, Bose Corporation, Minnetonka, MC). Femurs were placed with the posterior surface on the lower supports, spaced 9.9 mm apart. The upper supports were spaced 3.3 ram. Load was applied at a rate of 0.1 mm/s until failure occurred. The failure load (N) and bending stiffness […] within the elastic range were calculated from the force-displacement curves and the four-point dimensions.

non-skeletal vasculature = details: mouse, in vivo, iv
fracture site = assay: Femoral fracture model, local delivery of SLIT3 into the fracture site; assay type: in vivo, mouse
Procedure: as §1
For whole-mount immunostaining, retinas were collected from adult mice after systemic or local SLIT3 administration in bone fracture models.
as §2, §3, §4

[3] = system: murine ovariectomy (OVX) model of postmenopausal osteoporosis; assay: Ovariectomy (OVX) induced bone loss, therapeutic model after osteopenia onset; assay type: in vivo, mouse
[4] = system: bone marrow macrophages (BMMs); assay: In vitro osteoclast formation assay with RANKL and recombinant SLIT3; assay type: cell-based, mouse
Procedure: Murine bone marrow cells were flushed from the femur and tibia of mice and cultured in petri dishes in α-MEM medium with 10% FBS and 20 ng/ml of rM-CSF. Nonadherent cells were replated into tissue culture dishes and cultured in the same medium for 3 d to obtain osteoclast precursors. The osteoclast precursors then differentiated into osteoclasts in the presence of human RAMKL (50 ng/ml; PeproTech) and M-CSF for 3 days. Peripheral blood mononuclear cells from the whole blood of healthy volunteers were isolated by density gradient centrifugation using Ficoll (Invitrogen, Carlsbad, Calif.). CD14-positive cells were purified from fresh PBMCs using anti-CD14 magnetic beads (Miltenyi Biotec, Auburn, Calif.), as recommended by the manufacturer. Human monocytes were cultured in a-MEM with 10% FBS in the presence of M-CSF (20 ng/ml; PeproTech, Rocky Hill, N.J.) for 2 d to obtain monocyte-derived macrophages. Experiments with human cells were approved by the Hospital for Special Surgery Institutional Review Board.
Osteoclast culture, differentiation assays. Western Molting and qPCR. In vitro primary osteoclast cultures, quantitative PCR, Western blotting, and TRAP staining were performed as previously described. Primary antibodies were specific for SLIT3. (1:1,000; Cell Signaling) and HSP90 (1:2,000; Sigma).

[5] = IV twice weekly, 21 days after fracture
[6] = biomechanical testing, 21 days after fracture
[7] = treatment initiated eight weeks after OVX

B1: SLIT3: SLIT3 recombinant protein (R&D); secreted ligand of ROBO receptors (protein, UniProt O75094 34-1523, looked up)
Slit homolog 3 protein: CPTKCTCSAASVDCHGLGLRAVPRGIPRNAERLDLDRNNITRITKMDFAGLKNLRVLHLEDNQVSVIERGAFQDLKQLERLRLNKNKLQVLPELLFQSTPKLTRLDLSENQIQGIPRKAFRGITDVKNLQLDNNHISCIEDGAFRALRDLEILTLNNNNISRILVTSFNHMPKIRTLRLHSNHLYCDCHLAWLSDWLRQRRTVGQFTLCMAPVHLRGFNVADVQKKEYVCPAPHSEPPSCNANSISCPSPCTCSNNIVDCRGKGLMEIPANLPEGIVEIRLEQNSIKAIPAGAFTQYKKLKRIDISKNQISDIAPDAFQGLKSLTSLVLYGNKITEIVKGLFDGLVSLQLLLLNANKINCLRVNTFQDLQNLNLLSLYDNKLQTISKGLFAPLQSIQTLHLAQNPFVCDCHLKWLADYLQDNPIETSGARCSSPRRLANKRISQIKSKKFRCSGSEDYRSRFSSECFMDLVCPEKCRCEGTIVDCSNQKLVRIPSHLPEYVTDLRLNDNEVSVLEATGIFKKLPNLRKINLSNNKIKEVREGAFDGAASVQELMLTGNQLETVHGRVFRGLSGLKTLMLRSNLIGCVSNDTFAGLSSVRLLSLYDNRITTITPGAFTTLVSLSTINLLSNPFNCNCHLAWLGKWLRKRRIVSGNPRCQKPFFLKEIPIQDVAIQDFTCDGNEESSCQLSPRCPEQCTCMETVVRCSNKGLRALPRGMPKDVTELYLEGNHLTAVPRELSALRHLTLIDLSNNSISMLTNYTFSNMSHLSTLILSYNRLRCIPVHAFNGLRSLRVLTLHGNDISSVPEGSFNDLTSLSHLALGTNPLHCDCSLRWLSEWVKAGYKEPGIARCSSPEPMADRLLLTTPTHRFQCKGPVDINIVAKCNACLSSPCKNNGTCTQDPVELYRCACPYSYKGKDCTVPINTCIQNPCQHGGTCHLSDSHKDGFSCSCPLGFEGQRCEINPDDCEDNDCENNATCVDGINNYVCICPPNYTGELCDEVIDHCVPELNLCQHEAKCIPLDKGFSCECVPGYSGKLCETDNDDCVAHKCRHGAQCVDTINGYTCTCPQGFSGPFCEHPPPMVLLQTSPCDQYECQNGAQCIVVQQEPTCRCPPGFAGPRCEKLITVNFVGKDSYVELASAKVRPQANISLQVATDKDNGILLYKGDNDPLALELYQGHVRLVYDSLSSPPTTVYSVETVNDGQFHSVELVTLNQTLNLVVDKGTPKSLGKLQKQPAVGINSPLYLGGIPTSTGLSALRQGTDRPLGGFHGCIHEVRINNELQDFKALPPQSLGVSPGCKSCTVCKHGLCRSVEKDSVVCECRPGWTGPLCDQEARDPCLGHRCHHGKCVATGTSYMCKCAEGYGGDLCDNKNDSANACSAFKCHHGQCHISDQGEPYCLCQPGFSGEHCQQENPCLGQVVREVIRRQKGYASCATASKVPIMECRGGCGPQCCQPTRSKRRKYVFQCTDGSSFVEEVERHLECGCLACS
osteoblast activation / differentiation (ALP activity) [1]: did not enhance osteoblast activation; also recorded: does not directly regulate osteoblast differentiation or activity | bone fracture healing (μCT and histological analysis) ([2]; 5-week-old male mice, IV twice weekly, 21 days): enhancement of bone fracture healing; also recorded: enhances bone-fracture healing | bone volume in the callus area relative to controls [2, 5]: ~2 fold | vascularization of fracture area including CD31hiEMCNhi endothelium [2, 5]: increased | maximum load sustained by the fracture callus [2, 6]: significantly enhanced | stiffness of the fracture callus [2, 6]: significantly enhanced | brain ultrastructure (non-skeletal vasculature): no changes | fracture healing, local delivery (fracture site; implanted at fracture site): enhances bone-fracture healing | non-skeletal vascular abundance or morphology (fracture site; local delivery): did not impact | brain ultrastructure (fracture site; mouse, in vivo): did not impact | bone loss after onset of OVX-induced osteopenia ([3]; IV twice weekly initiated eight weeks after OVX): significantly reversed bone loss; also recorded: therapeutic effects | cortical thickness [3, 7]: increased | trabecular BV/TV [3, 7]: increased | CD31hiEMCNhi endothelial cells ([3]; treatment initiated eight weeks after OVX, femur): significantly increased | number of TRAP positive osteoclasts compared with controls ([4]; BMMs with RANKL and recombinant SLIT3, three days): no significant changes | expression of osteoclast marker genes ([4]; BMMs with RANKL, three days): modestly inhibited
